Drawing on article PMC8930769, this text covers stoichiometry N for one substance.

This experiment deals with native human uromodulin (UMOD), full-length, filaments (human) (UniProt P07911). Kind of experiment: cryo-EM structure; purified native UMOD filaments and His-tagged FimHL A27V mixed at a molar ratio of 1:3, 30 min, dialysed against 10 mM Na-HEPES pH 7.0; single-particle cryo-EM, 7.4 Å; FimHL docked into the difference map.

A word on the stoichiometry N: it is the number of molecules, sites or subunits per partner or assembly.

Take “His-tagged FimHL A27V from UPEC strain UTI89 (from UniProt Q1R2J4 22-179) (domain or fragment)”: the stoichiometry N worked out at 1.
